Results taken from US8129349B2, “Treatment of disease by inducing cell apoptosis” (The Regents of the University of California, priority 2000, dated 2012).
Marks after values point to notes of the source that are not given here.

Assays:
hepatic stellate cells = experiment: Apoptosis of activated stellate cells transfected with C/EBPβ constructs, annexin-V-PE binding; assay type: cell-based, mouse; conditions: transfected cells on collagen type I matrix
Source text: FIG. 1 provides data showing that phosphorylation of C/EBPβ on Thr^217 is required for hepatic stellate cell survival. Panel A provides phosphopeptide maps of in vivo labeled endogenous C/EBPβ in day-4 quiescent and activated primary mouse stellate cells cultured from the time of isolation on EHS or collagen type I matrix, respectively. The arrow indicates the peptide containing Phospho-Thr^217 in activated cells. […] Panel B provides phosphopeptide maps of in vitro labeled C/EPBβ. Active p90RSK phosphorylated C/EPBβ, but not C/EBPβ-Ala^217 on Thr^217 in vitro (arrowheads). Panel C provides results for cells cultured on collagen type I transfected with MSV-C/EBPβ antisense (AS), MSV-C/EBPβ sense (S), or MSV-C/EBPβ-Ala^217 together with CMV-GFP (green fluorescent protein) and p90RSK (1 μg each), as indicated in the Figure. Four hours after transfection, annexin-V-PE binding to plasma membranes was determined. The values presented are the percentage of transfected cells (green) that were annexin-V-PE (+) (red) (P<0.05 for C/EBPβ AS, and C/EBPβ-Ala^217). Panel D provides results for cells transfected as in […] with vectors expressing dominant negative mutants for MEKK1, IκBα, or p90RSK, or treated with the proteasome inhibitor lactacystin (10 μM) (closed bars), and co-transfected with MSV-C/EBPβ-Glu^217 (1 μg each) (open bars) as indicated. Annexin-V-PE binding was determined as described for Panel A (P<0.05 for C/EBPβ-Glu^217). Panel E provides results for cells transfected as described for Panel C, with a dominant-negative p90RSK, treated with FAS (100 nM for 6 hours) or cultured in a serum-free medium for 6 hours (closed bars), and co-transfected with MSV-C/EBPβ-Glu^217 (1 μg each) (open bars), as indicated. Cell death was determined by nuclear staining with Hoechst 33342 (P<0.05 for C/EBPβ-Glu^217 in RSK mut and FAS-treated cells).
FIG. 4 provides results showing that C/EBPβ PThr^217 associates with procaspases 1 and 8, and inhibits their activation. Panel A provides schematic representations of C/EBPβ peptides. The activation (dotted bars), DNA binding (solid bars) and dimerization (hatched bars) domains are shown. […] Panel C provides results showing that C/EBPβ and procaspase 8 were detected in activated stellate cells isolated from C/EBPβ^+/+ mice by confocal microscopy using specific antibodies (Santa Cruz Biotechnology). Control C/EBPβ^−/− stellate cells were negative for C/EBPβ, positive for procaspase 8, and apoptotic. Panel D provides immunoblot results for MSV vectors expressing C/EBPβ-HA (hemagglutinin protein) peptides (0.3 μg) transfected into activated stellate cells. The expressed peptides were immunoprecipitated with anti-HA antibodies. C/EBPβ-PThr^217 was detected using a specific antibody, only in cells expressing wild-type C/EBPβ. […] RSK was associated with all C/EBPβ peptides. Neither C/EBPβ nor procaspases 1 and 8 were detected in C/EBPβ immunoprecipitates from cells expressing C/EBPβ AS. Reciprocal immunoprecipitations of procaspases and RSK confirmed these associations.
Adult male Sprague-Dawley rats and adult male C/EBPβ^+/+ and C/EBPβ^−/− (Screpanti et al., supra; and Buck et al., (1999), supra), C/EBPβ-Ala^217 and C/EBPβ-Asp^105 transgenic mice were used for the isolation of primary hepatic stellate cells (Houglum et al., supra). Primary hepatic stellate cells were isolated by collagenase/pronase perfusion and purified by a single step density Nycodenz gradient (Accurate Chemical & Scientific) as known in the art (See, Lee et al., (1995), supra). Cells were plated on type I collagen matrix (Becton Dickinson) or EHS matrix (Matrigel, Collaborative Biomedical Products). Cells were cultured with 10% fetal calf serum/10% fetal bovine serum and transfected with lipofectamine (GIBCO) for DNA vectors or with the Chariot reagent (Active Motif) for peptides (10 μM) as known in the art (See, Houglum et al., supra; and Morris et al., J. Biol. Chem., 274:24942-24946 (1999)). […]

[1] = system: ES2 (ovarian cancer cell line); experiment: Annexin-V binding apoptosis assay after transfection, ES2 cells; assay type: cell-based, human; conditions: annexin-V binding four hours after transfection
Procedure: (§1) In these experiments, C/EBPβ-Ala^217 was tested in two mesenchymal cell lines for its ability to induce apoptosis. Human mesenchymal cell lines 1321-N1 (glial cancer cells; obtained from Dr. Joan Brown, at the University of California, San Diego), RD (skeletal muscle cancer cells; ATCC Accession No. CCL-136), human fibroblasts (98VA3N cells, obtained from Dr. Jerry VanderBerg, at the Veterans Administration Medical Center, San Diego, Calif.), ES2 (ovarian cancer cell line), C3A (liver cancer cell line), and MCF-7 breast cancer cells were cultured in minimal essential medium supplemented with fetal bovine serum as known in the art (See e.g., Buck et al., EMBO J., 13:151-160 (1994)). As additional cell types find use in the present invention, it is not intended that the present invention be limited to these specific cell lines. Indeed, similar results have been obtained with other cell types (e.g., CCF-STTG1 cells (ATCC Accession No. CRL-1718)) (data not shown).
(§2) Cells were co-transfected with vectors expressing the indicator protein GFP and C/EBPβ-Ala^217 as known in the art (See, Buck et al., Mol. Cell., 4:1087-1092 (1999)). Control cells were only transfected with GFP. […]

[2] = system: RD (skeletal muscle cancer cells); experiment: Annexin-V binding apoptosis assay after transfection, RD cells; assay type: cell-based, human; conditions: annexin-V binding four hours after transfection
Procedure: as §1, §2

[3] = system: human fibroblasts (98VA3N cells); experiment: Annexin-V binding apoptosis assay after transfection, 98VA3N cells; assay type: cell-based; conditions: annexin-V binding four hours after transfection
Procedure: as §1, §2

[4] = system: 1321-N1 (glial cancer cells); experiment: Annexin-V binding apoptosis assay after transfection, 1321-N1 cells; assay type: cell-based, human; conditions: annexin-V binding four hours after transfection
Procedure: as §1, §2

[5] = system: C3A (liver cancer cell line); experiment: Annexin-V binding apoptosis assay after transfection, C3A cells; assay type: cell-based, human; conditions: annexin-V binding four hours after transfection
Procedure: as §1, §2

[6] = system: MCF-7 breast cancer cells; experiment: Annexin-V binding apoptosis assay after transfection, MCF-7 cells; assay type: cell-based, human; conditions: annexin-V binding four hours after transfection
Procedure: as §1, §2

B1: C/EBPβ-Ala^217: modified murine C/EBPβ with mutation of Thr^217 to Ala (SEQ ID NO:3), nonphosphorylatable dominant negative mutant (protein, listed as Mus musculus)
chain: MHRLLAWDAACLPPPPAAFRPMEVANFYYEPDCLAYGAKAARAAPRAPAAEPAIGEHERAIDFSPYLEPLAPAADFAAPAPAHHDFLSDLFADDYGAKPSKKPADYGYVSLGRAGAKAAPPACFPPPPPAALKAEPGFEPADCKRADDAPAMAAGFPFALRAYLGYQATPSGSSGSLSTSSSSSPPGTPSPADAKAAPAACFAGPPAAPAKAKAKKAVDKLSDEYKMRRERNNIAVRKSRDKAKMRNLETQHKVLELTAENERLQKKVEQLSRELSTLRNLFKQLPEPLLASAGHC
- Effect of expressed construct on apoptosis / survival of stellate cells (hepatic stellate cells): became apoptotic
- Apoptosis (%) [1]: 44* %
- Apoptosis (%) [2]: 46* %
- Apoptosis (%) [3]: 80* %
- Apoptosis (%) [4]: 56* %
- Apoptosis (%) [5]: 34* %
- Apoptosis (%) [6]: 49* %
